Experiments:
[1] = QELS particle size and zeta potential of peptide DNA condensates, Example 6; type: physicochemical; settings: charge ratio 4:1, 50 μg/ml DNA in HBM; for Particle Size (nm): 90°, average and SD of three, No particles formed; for Zeta Potential (mV): average and SD of ten
Protocol: The particle size and zeta potential of peptide DNA condensates were determined by quasielastic light scattering (QELS) using a Brookhave ZetaPlus™. Particle size analysis was performed in triplicate at a DNA concentration of 50 μg/ml in HBM at a charge ratio of 4:1 and a scattering angle of 90°. Data analysis utilized a multimodal volume distribution option included with the instrument. Zeta potential was also determined using 50 μg/ml peptide DNA condensates prepared at a 4:1 charge ratio in HBM. The reported zeta potential was averaged from ten determinations.

plasmid DNA = experiment: Thiazole orange displacement titration of peptide binding to DNA, Example 6; settings: titration across charge ratios 0.25-8
Protocol: Peptide DNA condensates were prepared by combining 50 μg of DNA in 500 μl of Hepes buffered mannitol (HBM) (5 w/v% mannitol, 5 mM Hepes, pH 7.5) with […] of peptide in 500 μl of HBM while vortexing to form peptide DNA condensates with a calculated primary amine to phosphate charge ratio between 0.25 and 8.0 (NH4^+:PO4). The condensates were allowed to cross-link for 30 min prior to performing physical measurements. The binding of each peptide to DNA was assayed by combining peptide DNA condensates (50 μl) with 950 μl of HBM containing 0.1 μM thiazole orange. The fluorescence of the intercalated dye was measured using an LS50B fluorometer (Perkin Elmer, UK) by exciting at 500 nm while monitoring emission at 530 nm with the slit width set at 15 and 20 nm, respectively. Fluorescence blanks were substracted from all values before data analysis.

[2] = Shear stress stability (salt sonication assay), Example 6; type: physicochemical; settings: 30 sec sonication; highest tested 2.5 M
Protocol: The relative stability of peptide DNA condensates were examined using a salt sonication assay (Adami and Rice, 1999). Peptide DNA condensates (200 μl of 50 μg/ml) were formed as described above, incubated at RT for 30 min and then combined with 0-200 μl of 5 m […] and normalized to 400 μl with HBM to achieve a final sodium chloride concentration of 0, 0.2, 0.4, 0.8, 1.0, 1.5, 2.0 and 2.5 M. Each sample was sonicated for 30 sec with a 100 W Microson™ XL-2000 ultrasonic probe homogenizer (Kontes, Vineland N.J.) with a vibrational amplitude of 5 fragment uncondensed DNA. DNA condensates were digested with 30 μg to trypsin for 12 h at 37° C., electrophoresed on a 1% agarose gel electrophoresed in TEA buffer for 2 h, then visualized by ethidium bromide staining and destaining prior to photography on a transilluminator.

HepG2 cells = experiment: Luciferase gene expression in HepG2 cells, Example 6; type: cell-based; settings: HepG2, absence of chloroquine
Protocol: HepG2 cells (1.5×10^5) were plated on 6×35 mm wells and grown to 50% confluencey in MEM supplemented with 10% FBS, penicillin and streptomycin (100 U/ml), sodium pyruvate (100 mM), and L-glutamine (2 mM). Transfections were performed in MEM (2 ml per 35 mm well) with 2% FBS with and without 80 μM chloroquine. Peptide DNA condensates (10 μg of DNA of 0.2 ml HBM) were added dropwise to triplicate wells. After a 5 h incubation at 37° C., the medium was replaced with MEM supplemented with 10% FBS. After 24 h, cells were washed with ice-cold phosphate buffered saline (calcium and magnesium free) and then treated with 0.5 ml of ice-cold lysis buffer (25 mM) Tris chloride pH 7.8, 1 mM EDTA, 8 mM magnesium chloride, 1% Triton X-100, 1 mM DTT) for 10 min. The cell lysates were scraped, transferred to 1.5 ml microcentrifuge tube, and centrifuged for 7 min at 13,000 g at 4° C. to pellet debris.
Lysis buffer (300 μl), sodium-ATP (4 μl of a 180 mM solution, pH 7, 4° C.) and cell lysate (100 μl, 4° C.) were combined in a test tube, briefly mixed and immediately placed in the luminometer. Luciferase relative light units (RLU) were recorded on a Lumat™ LB 9501 (Berthoid Systems, Germany) with 10 sec integration after automatic injection of 100 μl of 0.5 mM D-luciferin (prepared fresh in lysis buffer without DTT). The RLU were converted into fmol using a standard curve generated by adding a known amount of luciferase (0.01 to 100 fmols with specific activity of 2.5 nU/fmol) to 35 mm wells containing 50% confluent cells and lysis buffer. Protein concentrations were measured by Bradford assay using bovine serum albumin as a standard (Bradford, 1976). […]
LipofectAce™ (Gibco BRL, 1:2.5 w/w dimethyl dioctadecylammonium bromide and dioleoyl phosphatidylethanolamine) was used to mediate gene transaction according to the manufacturer's instructions. […] The cells were incubated for a total of 24 h, harvested and analyzed for luciferase as described above.

[3] = QELS particle size and zeta potential of cross-linking peptide DNA condensates, Example 5; type: physicochemical; settings: for Particle Size Mean Diameter, Oxidized, 15° / Particle Size Mean Diameter, Oxidized, 90°: HBM after 2 h incubation, 50 μg/ml DNA, 0.4 nmol peptide per μg DNA; for Particle Size Mean Diameter, Oxidized, 15°: scattering angle 15°; for Particle Size Mean Diameter, Oxidized, 90°: scattering angle 90°; for Particle Size Mean Diameter, Saline: HBM with added saline (0.15 M) after 15 min; for Particle Size Mean Diameter, Reduced: following addition of TCEP (1 mM)
Protocol: The particle size of each peptide DNA condensate was determined by quasielastic light scattering (QELS) at a scatter angle of both 15° and 90° on a Brookhaven ZetaPlus™ particle sizer. Condensates were prepared at a DNA concentration of 50 μg/ml in 400 μl HBM at a stoichiometry of 0.4 nmol of peptide per μg of DNA corresponding to a charge ratio of approximately 2:1 for each. The mean diameter and population distribution were computed from the diffusion coefficient using a unimodal cummulant analysis supplied by the manufacturer.
The particle size and zeta peptide IV DNA condensates were determined by titrating 7.5 to 37.5 nmol of peptide with 75 μg of DNA in 1.5 ml of HBM to produce 50 μg/ml DNA condensates with charge ratio of 0.5-2.5. The zeta potential was averaged from 10 determines.

[4] = Shear stress stability of cross-linked DNA condensates (salt sonication), Example 5; type: physicochemical; settings: charge ratio of 0.9
Protocol: Peptide DNA condensates (200 μl of 50 μg/ml) were formed and incubated at RT for 30 min and then combined with 0 to 200 μl of 5 M sodium chloride and normalized to 400 μl with HBM to achieve a final sodium chloride concentration of 0, 0.2, 0.4, 0.8, 1.0, 1.5, 2.0, and 2.5 M. Each sample was sonicated for 30 sec with a 100 W Microson™ XL-2000 ultrasonic probe homogenizer (Kontes, Vineland N.J.) with a vibrational amplitude of 6 to fragment uncondensed DNA (Adami et al., 1998). DNA condensates were digested with 30 μg of trypsin for 12 h at 37° C. then electrophoresed on an agarose gel and visualized by ethidium bromide staining.

Substance: Cys-(His-Lys)4-Cys (CHKHKHKHKC) [Peptide 15]
- Particle Size (nm) [1]: 205 ± 104 nm
- Zeta Potential (mV) [1]: 23 ± 1 mV

Substance: Cys-(Lys)2-Cys (CKKC) [Peptide 4]
- charge ratio (NH4+:PO4) needed to condense DNA (thiazole orange fluorescence minimum) (plasmid DNA): > 8

Substance: Cys-(Lys)2-Cys-(Lys)2-Cys (CKKCKKC) [Peptide 9]
- sodium chloride concentration up to which DNA condensates are stable [2]: 1.5 M
- Particle Size (nm) [1]: 1668 ± 154 nm

Substance: Cys-(Lys)3-Cys-(Lys)3-Cys (CKKKCKKKC) [Peptide 10]
- sodium chloride concentration up to which DNA condensates are stable [2]: 2.5 M
- Particle Size (nm) [1]: 1375 ± 324 nm
- Zeta Potential (mV) [1]: 34 ± 2 mV

Substance: Cys-(Lys)4-Cys-(Lys)4-Cys (CKKKKCKKKKC) [Peptide 11]
- sodium chloride concentration up to which DNA condensates are stable [2]: 2.5 M
- Particle Size (nm) [1]: 738 ± 154 nm
- Zeta Potential (mV) [1]: 31 ± 3 mV

Substance: Cys-(Lys)6-Cys (CKKKKKKC) [Peptide 6]
- charge ratio (NH4+:PO4) needed to condense DNA (thiazole orange fluorescence minimum) (plasmid DNA): 2
- Particle Size (nm) [1]: 52 ± 4 nm
- Zeta Potential (mV) [1]: 37 ± 1 mV

Substance: Cys-His-(Lys)3-His-(Lys)2-His-Cys (CHKKKHKKHC) [Peptide 14]
- Particle Size (nm) [1]: 183 ± 64 nm
- Zeta Potential (mV) [1]: 20 ± 2 mV
- higher gene expression compared to peptide 7 DNA condensates (HepG2 cells): 4 fold

Substance: Cys-His-(Lys)6-His-Cys (CHKKKKKKHC) [Peptide 13]
- Particle Size (nm) [1]: 97 ± 40 nm
- Zeta Potential (mV) [1]: 31 ± 1 mV
- higher gene expression compared to peptide 7 DNA condensates (HepG2 cells): 4 fold

Substance: Cys-His-Lys-His-Lys-(His)2-Lys-His-Cys (CHKHKHHKHC) [Peptide 16]
- Particle Size (nm) [1]: 320 ± 169 nm
- Zeta Potential (mV) [1]: 23 ± 1 mV

Substance: Cys-Lys-Cys-Lys-Cys (CKCKC; printed: Cys-Lys-Cys-Lys-Cys) [Peptide 8]
- charge ratio (NH4+:PO4) needed to condense DNA (thiazole orange fluorescence minimum) (plasmid DNA): 6-8

Substance: Cys-Trp-Lys5-Cys-Lys5-Cys-Lys5-Cys [Peptide IV]
- Particle Size Mean Diameter, Oxidized, 15° [3]: 57 nm
- Particle Size Mean Diameter, Oxidized, 90° [3]: 44 nm
- Particle Size Mean Diameter, Saline [3]: 324 nm
- particle size of electronegative DNA condensates ([3]; charge ratio of 0.9): 62 nm
- zeta potential of electronegative DNA condensates ([3]; charge ratio of 0.9): −18 mV
- Particle Size Mean Diameter, Reduced [3]: 158 nm
- sodium chloride concentration up to which fragmentation was resisted [4]: 2.5 M

Substance: Cys-Trp-Lys8-Cys-Lys8-Cys (CWKKKKKKKKCKKKKKKKKC) [III]
- Particle Size Mean Diameter, Oxidized, 15° [3]: 26 nm
- Particle Size Mean Diameter, Oxidized, 90° [3]: 39 nm
- Particle Size Mean Diameter, Saline [3]: 157 nm
- Particle Size Mean Diameter, Reduced [3]: 136 nm
